This note sets out measurements from doi:10.1101/2025.10.14.682297 (bioRxiv, 2025).

This data set deals with the molecule itself. Put plainly: cryo-EM structure.

B1: human ZNFX1 (NFX1-type zinc finger-containing 1), full-length, 2xStrep-tagged, wild type (enzyme, UniProt Q9P2E3 1-1918, looked up)
chain: MEERRPHLDARPRNSHTNHRGPVDGELPPRARNQANNPPANALRGGASHPGRHPRANNHPAAYWQREERFRAMGRNPHQGRRNQEGHASDEARDQRHDQENDTRWRNGNQDCRNRRPPWSNDNFQQWRTPHQKPTEQPQQAKKLGYKFLESLLQKDPSEVVITLATSLGLKELLSHSSMKSNFLELICQVLRKACSSKMDRQSVLHVLGILKNSKFLKVCLPAYVVGMITEPIPDIRNQYPEHISNIISLLQDLVSVFPASSVQETSMLVSLLPTSLNALRASGVDIEEETEKNLEKVQTIIEHLQEKRREGTLRVDTYTLVQPEAEDHVESYRTMPIYPTYNEVHLDERPFLRPNIISGKYDSTAIYLDTHFRLLREDFVRPLREGILELLQSFEDQGLRKRKFDDIRIYFDTRIITPMCSSSGIVYKVQFDTKPLKFVRWQNSKRLLYGSLVCMSKDNFETFLFATVSNREQEDLCRGIVQLCFNEQSQQLLAEVQPSDSFLMVETTAYFEAYRHVLEGLQEVQEEDVPFQRNIVECNSHVKEPRYLLMGGRYDFTPLIENPSATGEFLRNVEGLRHPRINVLDPGQWPSKEALKLDDSQMEALQFALTRELAIIQGPPGTGKTYVGLKIVQALLTNESVWQISLQKFPILVVCYTNHALDQFLEGIYNCQKTSIVRVGGRSNSEILKQFTLRELRNKREFRRNLPMHLRRAYMSIMTQMKESEQELHEGAKTLECTMRGVLREQYLQKYISPQHWESLMNGPVQDSEWICFQHWKHSMMLEWLGLGVGSFTQSVSPAGPENTAQAEGDEEEEGEEESSLIEIAEEADLIQADRVIEEEEVVRPQRRKKEESGADQELAKMLLAMRLDHCGTGTAAGQEQATGEWQTQRNQKKKMKKRVKDELRKLNTMTAAEANEIEDVWQLDLSSRWQLYRLWLQLYQADTRRKILSYERQYRTSAERMAELRLQEDLHILKDAQVVGMTTTGAAKYRQILQKVEPRIVIVEEAAEVLEAHTIATLSKACQHLILIGDHQQLRPSANVYDLAKNFNLEVSLFERLVKVNIPFVRLNYQHRMCPEIARLLTPHIYQDLENHPSVLKYEKIKGVSSNLFFVEHNFPEQEIQEGKSHQNQHEAHFVVELCKYFLCQEYLPSQITILTTYTGQLFCLRKLMPAKTFAGVRVHVVDKYQGEENDIILLSLVRSNQEGKVGFLQISNRICVALSRAKKGMYCIGNMQMLAKVPLWSKIIHTLRENNQIGPMLRLCCQNHPETHTLVSKASDFQKVPEGGCSLPCEFRLGCGHVCTRACHPYDSSHKEFQCMKPCQKVICQEGHRCPLVCFQECQPCQVKVPKTIPRCGHEQMVPCSVPESDFCCQEPCSKSLRCGHRCSHPCGEDCVQLCSEMVTIKLKCGHSQPVKCGHVEGLLYGGLLVKCTTKCGTILDCGHPCPGSCHSCFEGRFHERCQQPCKRLLICSHKCQEPCIGECPPCQRTCQNRCVHSQCKKKCGELCSPCVEPCVWRCQHYQCTKLCSEPCNRPPCYVPCTKLLVCGHPCIGLCGEPCPKKCRICHMDEVTQIFFGFEDEPDARFVQLEDCSHIFEVQALDRYMNEQKDDEVAIRLKVCPICQVPIRKNLRYGTSIKQRLEEIEIIKEKIQGSAGEIATSQERLKALLERKSLLHQLLPEDFLMLKEKLAQKNLSVKDLGLVENYISFYDHLASLWDSLKKMHVLEEKRVRTRLEQVHEWLAKKRLSFTSQELSDLRSEIQRLTYLVNLLTRYKIAEKKVKDSIAVEVYSVQNILEKTCKFTQEDEQLVQEKMEALKATLPCSGLGISEEERVQIVSAIGYPRGHWFKCRNGHIYVIGDCGGAMERGTCPDCKEVIGGTNHTLERSNQLASEMDGAQHAAWSDTANNLMNFEEIQGMM
As a reminder, the stoichiometry N is a count of units in the complex or per binding partner. B1: the “stoichiometry N” value was 2.
